In patent US20230118104A1, “COMPOSITIONS AND METHODS FOR TREATING PANCREATIC ENZYME DEFICIENCIES IN MAMMALS” (Vets Plus, Inc., priority 2018, published 2023):

B1: Porcine Lipase: Lipase enzyme from porcine (protein, UniProt P00591 1-450, looked up)
Pancreatic triacylglycerol …: SEVCFPRLGCFSDDAPWAGIVQRPLKILPWSPKDVDTRFLLYTNQNQNNYQELVADPSTITNSNFRMDRKTRFIIHGFIDKGEEDWLSNICKNLFKVESVNCICVDWKGGSRTGYTQASQNIRIVGAEVAYFVEVLKSSLGYSPSNVHVIGHSLGSHAAGEAGRRTNGTIERITGLDPAEPCFQGTPELVRLDPSDAKFVDVIHTDAAPIIPNLGFGMSQTVGHLDFFPNGGKQMPGCQKNILSQIVDIDGIWEGTRDFVACNHLRSYKYYADSILNPDGFAGFPCDSYNVFTANKCFPCPSEGCPQMGHYADRFPGKTNGVSQVFYLNTGDASNFARWRYKVSVTLSGKKVTGHILVSLFGNEGNSRQYEIYKGTLQPDNTHSDEFDSDVEVGDLQKVKFIWYNNNVINPTLPRVGASKITVERNDGKVYDFCSQETVREEVLLTLNPC
B2: Porcine Amylase: Amylase enzyme from porcine (protein, UniProt P00690 16-511, looked up)
Pancreatic alpha-amylase: QYAPQTQSGRTSIVHLFEWRWVDIALECERYLGPKGFGGVQVSPPNENIVVTNPSRPWWERYQPVSYKLCTRSGNENEFRDMVTRCNNVGVRIYVDAVINHMCGSGAAAGTGTTCGSYCNPGNREFPAVPYSAWDFNDGKCKTASGGIESYNDPYQVRDCQLVGLLDLALEKDYVRSMIADYLNKLIDIGVAGFRIDASKHMWPGDIKAVLDKLHNLNTNWFPAGSRPFIFQEVIDLGGEAIQSSEYFGNGRVTEFKYGAKLGTVVRKWSGEKMSYLKNWGEGWGFMPSDRALVFVDNHDNQRGHGAGGASILTFWDARLYKVAVGFMLAHPYGFTRVMSSYRWARNFVNGQDVNDWIGPPNNNGVIKEVTINADTTCGNDWVCEHRWRQIRNMVWFRNVVDGQPFANWWANGSNQVAFGRGNRGFIVFNNDDWQLSSTLQTGLPGGTYCDVISGDKVGNSCTGIKVYVSSDGTAQFSISNSAEDPFIAIHAESKL

What was measured:
Format in all cases: biochemical
[1] = Lipase enzyme analysis, free fatty acid (Phenolphthalein) Test; settings: substrate Fat / Vegetable oil; enzyme 1 mg/ml; 480 nM; n = 4
Description: Lipase enzyme from porcine and Rhizopus oryzae at 1 mg/ml concentration and a control of no enzymes were subjected the free fatty acid (Phenolphthalein) Test followed by spectrophotometric analysis at […].

[2] = Amylase enzyme analysis, Benedict's Test, substrate Dextrose; settings: enzyme 1 mg/ml, 10 minutes, pH 7, 38° C., 580 nm, n = 4
Description: (§1) Amylase enzyme from porcine and Bacillus amyloliquefaciens at 1 mg/ml concentration and a control of no enzymes were subjected to the Benedict's Test for 10 minutes at pH 7, 38° C., followed by spectrophotometric analysis at […].

[3] = Amylase enzyme analysis, Benedict's Test, substrate Starch; settings: enzyme 1 mg/ml, 10 minutes, pH 7, 38° C., 580 nm, n = 4
Description: as §1

[4] = Amylase enzyme analysis, Benedict's Test, substrate Maltose; settings: enzyme 1 mg/ml, 10 minutes, pH 7, 38° C., 580 nm, n = 4
Description: as §1

Row | Molecule | absorbance, free fatty acid (Phenolphthalein) Test [1] | absorbance, Benedict's Test [2] | absorbance, Benedict's Test [3] | absorbance, Benedict's Test [4]
1 | B1 | 3.17 +/− 0.11 | – | – | –
2 | B2 | – | 3.078 +/− 0.13 | 2.087 +/− 0.11 | 3.108 +/− 0.15
